Legend:
Nf Gα5 [1] = molecular target: T1, Nf Gα5 (Naegleria fowleri, UniProt A0A6A5BQC6); assay: intrinsic tryptophan fluorescence (activation, return after hydrolysis); assay type: biochemical; details: 0.5 μM protein, 1 μM nucleotide, 10 mM MgCl2, pH 7.5, 20 °C
T1 construct: gene FDP41_003899; N-terminal TEV-cleavable His6 tag; E. coli
T1 sequence (A0A6A5BQC6 57-394 limits assumed): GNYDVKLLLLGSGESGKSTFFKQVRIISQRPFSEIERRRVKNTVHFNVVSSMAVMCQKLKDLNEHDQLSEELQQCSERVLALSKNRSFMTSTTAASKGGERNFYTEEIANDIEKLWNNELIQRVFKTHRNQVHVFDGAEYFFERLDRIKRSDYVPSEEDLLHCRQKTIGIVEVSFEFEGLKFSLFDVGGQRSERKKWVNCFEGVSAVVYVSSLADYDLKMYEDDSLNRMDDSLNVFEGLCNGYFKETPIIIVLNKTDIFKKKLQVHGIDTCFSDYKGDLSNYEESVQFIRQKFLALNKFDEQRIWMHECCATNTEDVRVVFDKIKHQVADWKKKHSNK

Nf Gα7 = molecular target: T2, Nf Gα7 (Naegleria fowleri, UniProt A0A6I8WFP8); assay: intrinsic tryptophan fluorescence (activation); assay type: binding; details: 0.5 μM protein, 1 μM nucleotide, 10 mM MgCl2, pH 7.5, 20 °C
T2 construct: gene NF0037180; N-terminal TEV-cleavable His6 tag; E. coli
T2 sequence (A0A6I8WFP8 1-321): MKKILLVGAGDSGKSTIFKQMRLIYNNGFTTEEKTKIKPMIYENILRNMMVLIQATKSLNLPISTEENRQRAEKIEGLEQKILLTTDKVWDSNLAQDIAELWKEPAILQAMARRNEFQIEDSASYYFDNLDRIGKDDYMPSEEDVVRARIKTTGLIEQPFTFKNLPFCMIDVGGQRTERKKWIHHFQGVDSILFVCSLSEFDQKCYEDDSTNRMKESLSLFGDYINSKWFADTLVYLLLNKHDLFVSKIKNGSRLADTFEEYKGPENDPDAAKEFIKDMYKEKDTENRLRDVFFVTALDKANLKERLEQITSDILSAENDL

Nf Gα5 [2] = molecular target: T1, Nf Gα5; assay: intrinsic tryptophan fluorescence (activation); assay type: binding; details: 0.5 μM protein, 1 μM nucleotide, 10 mM MgCl2, pH 7.5, 20 °C
[3] = molecular target: Naegleria fowleri G protein α subunit Nf Gα2 (Naegleria fowleri); assay: SPR; Proteon XPR36; ~5000 RU of His6-tagged Gα subunits immobilised on a nickel-NTA chip by covalent capture coupling; RGS domains injected as analyte at 20 μl/min; 50 mM Hepes pH 7.4, 150 mM NaCl, 0.05% NP-40 alternative, 50 μM EDTA, 1 mM MgCl2; Gα in the AMF state (100 μM GDP, 20 mM NaF, 30 μM AlCl3); equilibrium binding analysis
[4] = molecular target: Naegleria fowleri G protein α subunit Nf Gα3 (Naegleria fowleri); assay: as above

| Molecule | intrinsic tryptophan fluorescence (activation, return after hydrolysis) (Nf Gα5 [1]) | intrinsic tryptophan fluorescence (activation) (Nf Gα7) | intrinsic tryptophan fluorescence (activation) (Nf Gα5 [2]) | Kd [3] | Kd [4] |
| --- | --- | --- | --- | --- | --- |
| Nc1nc2c(ncn2[C@@H]2O[C@H](COP(=O)(O)OP(=O)(O)OP(=O)(O)O)[C@@H](O)[C@H]2O)c(=O)[nH]1 [GTP] | returned slowly to near-baseline levels after multiple rounds of hydrolysis and exhaustion of available GTP | achieved the active conformation in the presence of either GppNHp or GTP |  |  |  |
| Nc1nc2c(ncn2[C@@H]2O[C@H](COP(=O)(O)OP(=O)(O)NP(=O)(O)O)[C@@H](O)[C@H]2O)c(=O)[nH]1 [GppNHp] |  | achieved the active conformation in the presence of either GppNHp or GTP | achieved the active conformation in the presence of either GppNHp or GTP |  |  |
| RGS domain of Naegleria fowleri Nf RGS-RhoGEF (domain or fragment) |  |  |  | 2400 nM | 3300 nM |
| RGS domain of Naegleria fowleri seven-transmembrane RGS protein Nf 7TM RGS2 (domain or fragment) |  |  |  | 630 nM | 550 nM |
| RGS domain of Naegleria fowleri seven-transmembrane RGS protein Nf 7TM RGS4 (domain or fragment) |  |  |  |  | 1800 nM |
